Assay results from IntAct's records for PubMed 18093972.

B1: Homeodomain-interacting protein kinase 2 (Mus musculus), Q9QZR5 (parent)
chain: MAPVYEGMASHVQVFSPHTLQSSAFCSVKKLKVEPSSNWDMTGYGSHSKVYSQSKNIPPSQPASTTVSTSLPIPNPSLPYEQTIIFPGSTGHIVVTSASSTSVTGQVLGGPHNLMRRSTVSLLDTYQKCGLKRKSEEIENTSSVQIIEEHPPMIQNNASGATVATATTSTATSKNSGSNSEGDYQLVQHEVLCSMTNTYEVLEFLGRGTFGQVVKCWKRGTNEIVAIKILKNHPSYARQGQIEVSILARLSTESADDYNFVRAYECFQHKNHTCLVFEMLEQNLYDFLKQNKFSPLPLKYIRPVLQQVATALMKLKSLGLIHADLKPENIMLVDPSRQPYRVKVIDFGSASHVSKAVCSTYLQSRYYRAPEIILGLPFCEAIDMWSLGCVIAELFLGWPLYPGASEYDQIRYISQTQGLPAEYLLSAGTKTTRFFNRDTDSPYPLWRLKTPDDHEAETGIKSKEARKYIFNCLDDMAQVNMTTDLEGSDMLVEKADRREFIDLLKKMLTIDADKRVTPIETLNHPFVTMTHLLDFPHSAHVKSCFQNMEICKRRVNMYDTVNQSKTPFITHVAPSTSTNLTMTFNNQLTTVHNQAPTTSSATLSLANPEVSILNYQSALYQPSAASMAAVAPRSMPLQTGTAQICARPDPFQQALIVCPPGFQGLQASPSKHAGYSVRMENAVPIVTQAPGAQPLQIQPGLLAQQAWPGGAQQILLPPAWQQLTGVATHTSVQHAAVIPETMAGTQQLADWRNTHAHGSHYNPIMQQPALLTGHVTLPAAQPLNVGVAHVMRQQPTSTTSSRKSKQHQSSVRNVSTCEVTSSQAISSPQRSKRVKENTPPRCAMVHSSPACSTSVTCGWGDVASSTTRERQRQTIVIPDTPSPTVSVITISSDTDEEEEQKHAPTSTVSKQRKNVISCVTVHDSPYSDSSSNTSPYSVQQRTGHNGTNTLDTKGGLENHCTGNPRTIIVPPLKTQASEVLVECDSLGPAISASHHSSSFKSKSSSTVTSTSGHSSGSSSGAIAYRQQRPGPHFQQQQPLNLSQAQQHMAADRTGSHRRQQAYITPTMAQAPYTFPHNSPSHGTVHPHLAAAAHLPTQPHLYTYTAPTALGSTGTVAHLVASQGSARHTVQHTAYPASIVHQVPVSMGPRVLPSPTIHPSQYPAQFAHQTYISASPASTVYTGYPLSPAKVNQYPYI
partner: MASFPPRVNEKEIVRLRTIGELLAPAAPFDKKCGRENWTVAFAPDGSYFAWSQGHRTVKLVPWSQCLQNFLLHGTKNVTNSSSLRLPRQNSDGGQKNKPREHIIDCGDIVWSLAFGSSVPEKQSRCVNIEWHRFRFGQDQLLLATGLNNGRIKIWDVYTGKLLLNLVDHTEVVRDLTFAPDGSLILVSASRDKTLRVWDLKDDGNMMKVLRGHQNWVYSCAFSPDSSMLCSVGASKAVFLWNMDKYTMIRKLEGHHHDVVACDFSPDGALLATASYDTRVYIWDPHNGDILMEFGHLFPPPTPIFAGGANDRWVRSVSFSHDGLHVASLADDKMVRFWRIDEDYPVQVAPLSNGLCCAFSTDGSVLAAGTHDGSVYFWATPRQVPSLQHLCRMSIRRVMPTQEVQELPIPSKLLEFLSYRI

Variants of: B1
Details: with wsb1_human WSB1, Q9Y6I7

Q: How did the “effect of a mutation on the interaction” value turn out when K228R was run?
A: increasing interaction
